A short description of this data set: label from the status in PepcDB records.

Regarding “MKILWLIILVNLFLSCGNESKEKSNLGLRLRELEISGGGSESKIEVYKEFIEKEDKNILKIVNSIDKKARFFNLIGLEFFKLGQYGPAIEYFAKNLEINPNNYLSHFYIGVASYNLAKNLRVKDEVEKYIILAENSFLKSLSIRDDFKDSLFAISNMYVYDLDKQLEAKNYLNKLGDMGEDYFEFLMLRGANYYSLGDLGNAILFYDKASKKASTEEQKEGVSRIMSNLK”, the protein production result is reported as “failed”.

“MKILYIVLDGAADSPTSPRKTLEEASKPNIDSLGSHAVCGMVYTVKPGVAPQSDYATLSLLGYNPDEYYPGRGPLEAFGAGIEMRRGDIALRANFATVDPGTLRIIDRRVGRSLTSREARELASAVDGMELEDGEGTALFRATIGHRGVLVLRHRSKPLSDAISNTDPAYERRGRFSVALEKYEPFIKLSNPLVEDEAAVLAARMLNEFTLKAVEILDSHPVNLAREKRGLLKANAILSRDAGGLPEEKPPSFQERFGLRGASIVEMVVERGISRYIGLDDIRVEIEGRAREEVYREEAARAVEALETHDLVYVHLKGPDEPGHDGSFEGKIRAVEDIDKHFFAPLLDRLSSAGLEPAFVVTSDHATPWDVGAHSGDPVPLMISHQSIQGSIGKFSETVCLRGRLGTIIGGYRIIPKTLSLLAG”: the protein production result is “not failed”.

With “MKIMKTFALSSIASAAMLFCSSALAADGTITVDGKVTDRTCTINGGTPNFSVTMPTVSFSSLNGEGKTSARTPFTIELTNCTAGSTVATYFEPGPAVDINTSRLINQAPTASAATNVQVQLLGSNGSVIPIKAVGTTGAQDNSQWVAVNASGAASMHYYTEYYATGVSTAGSVVTNIQYTIIYQ”, the protein production result was “failed”.

As for “MKIMTKALNRTTLGLALGLASSQLLAAGFALNEQSISGMGTGFAGRSSSADDASTVFGNPAGMSRIKREQISVGAAAVIAKTDIDNGRGTFGGSNDGDMVPVVGVPMGYYVKPIDDHWAFGLGVYVPFGLVTDYEKGFAGRYWGDKSHVQIVTFQPTVSYAFNDKVSIGFGPTINRIDGELTSAVPNRASLGTNDGKVKIKGDDTAIGFNAGILVQATDTTRLGLTYHSKVDYKLEGKTKVEGSGFGPFGGQKYDASLDISTPESVDFSITQQLDENWTVYAGSTWTRWSRLKDITVENSGVPTALASSIGTITEEQDWHDTWAHAIGASYKVNKEWTLRTGFSVDQSPTNNVNRSPRIPTGDRKIISFGAGWSPTDDLTIDVAYSYLREDETKIRDSSATKGSYSADYRNTAHGLGTSVTYRF”, the protein production result is “failed”.

Regarding “MKINLDRTSSGFCIGVQGTIHVAEEKLAQSGELYCLGDVVHNEVEVKRLEALGMETIDIPAFEELRNAEVLIRAHGEPPSTYETARKNNLAITDTTCPVVAKLQRTAKMLHQLGYQVVIYGKKVHPEVIGINGQCDDEGVVIKHPDLSDPEEIAPLDLSRKTALISQTTMDVPGFYELKRNLEKLFAEHGHRNPGTQSGEWMAVRDIDITAEKTGALAMPKLVFKDTICRQVSSRNGKLRDFALANDCIVFAAGRKSSNGQVLYSICKDANPHSYFIEDVDEIRPEWFVGENGKPVESVGICGATSTPMWLLEKVANYIDKTFGDGSSNPNA”, the protein production entry was “failed”.

For “MKINPRVIYLSIVFIFLVIMASNVAVADDLEAEKLTKVASNVALDSNPVWSPDGKEILFSRENGLYKVFSDGTGEMKLTSTKGKNFTSDYAWSPDGSKISYIENRYDTAAGPRSDLWIMNSNGEGKKQLLDTIWYRYYYIYTWFPTGSKILYAEIYEEIGGSYWEMDSDGSNKHNIGNMGIANGIALSPDASKIAICAHGPADVDYYIDVGKVGKDLTSFRYGLITHQTQSRQSQIWAPDGSKIVYYAGKNESYYEDENSEIYIVKADGTGRIQLTSDSANDNSPVFSPDGSKIVFVSDKAGNEDIWIMDADGKNKVQLTSDPASDSFPVWSPDGKKIAFWSNRGGNNNIYTLTLENEKTPVAAFCASQTSGNAPLKVSFTDKSTGTPTSWSWSFGDGKTSTLKNPLHIYSKAGKYTVSLTVKNAAGTNMKTITKYITVKTAPVKPIAAFSASPGSGKTPLKVKFTDTSTGTPTAWRWNFGDGSKSFLQNPIHKYSKTGIYTVDLTVKNAAGRNTVTKTDYITVVTKPVAEFSATPTTGKLPLTVEFTDKSTGVPTGWIWSFGDGTISREQNPKHQYLQEGKYKIILSVTNVAGSSTIKKINYIRVTTNTRPRIL”, the protein production entry is recorded as “failed”.

With “MKIRPFLVALGLTTFAGAAHGANFEDLTQLLSTKKCPLCDLRGAGLVMVNLTRADLTGADLSGANLSGADLTGANLSGANLTSASLNGANLSGANLNGAITDGTDFREAYFDRATFINTNLETAYMQGAKAVPNTAGTPQLFYGWGLLETSKGNYQSALNHYDQALALDPEFAPGYLGRGLTLLKIGNEASAKQNVEYAQLLFEENQDEVGVKTSEQFLEDLANMQEARRQGAGNPQLDAIVRGVASMAFKYLLPLVGL”, the protein production result was “failed”.

Take “MKISAIKTWLPLLIIIVLLGLFLGLGLNKYVSFASLRDNHEWLIAITKSHFYLVSFVFIIIYTVAVALSIPGAIFLTLIGGFLFGILWGTFLVVLSATLGATILFFAVQSSLGEVFSKRASGWVKRMRSGFKDNAFSYLLTLRLIPLFPFWVINIVSAVLGVSASTFIIATFIGIIPGSIVYVSVGNGLGELFAASLQPNLGIIFEPKFILPLLGLAALSLIPVFYKKKGKQGTEKMKDKDLFCDLAIIGGGSAGLSIAAGCSQLGLQVVLVEPNKMGGDCLNYGCIPSKTLLNTAKIFYQTKHSTVLGIQAKSVKIDFLQVMQQVHNVIACIAKNDSVERFTSLGVQVIQEAGHFIGPKQFKLKRKIIRAKHFVIATGSSPAIPPIQNLNKVSYLTNETIFNLKVQPEHLIVIGGGPIGCELAQAFAMLGSKVTILEAFTILPKDDADCVAIIRSQLESMQIALYEQIKINKIEESADKTISVHLENQDNPITITGSHLLVSTGRVANVDGLGLEKAGVQYTTRGINTNARLQTTNKKIYAIGDVTGPYQFTHMASYQAGIALRNIAFKWPAKVDYKAVPWVTYTEPELAHVGLLASEALKDPTLKITEFAFAEVDRAQAENKVNGKIKIITGKKAKILGVSIVGAHAGELILPWVIAVKERKSLRTFTDAIAAYPTFSEISKRVAGEYYKPFIFSSKIRTFVRWLNKLG”: the protein production entry is reported as “failed”.

“MKISELGYDRAFLQLFDGNDFQLYDHQRMAIEQIRKGRNVVVSVPTAAGKTLIAYSAIYETFQRNLKSIYIVPLRSLAMEKFSELSRLRDLGLKVKMSIGDYDDSPDFIKRYDAVILTSEKADSLLHHDPYILNDVGLLVLDEIHTIGDESRGPTLETVASIARYVNPDVRILALSATVSNAMELASWLDASLIKSDFRPVPLKTGILYRDQLYLDGKRRSGVSINQIIRETVEDNGQVLMFVSSRKKAEDTARDLAQIFGSDANIKISSDETNVYDDMLNEILPRGVAFHHAGLSNDQRAFIEREFRARRIKVIVATPTLAAGVNLPARLVIVRDITRWGSDGISYLTNMEIKQMIGRAGRPGYDQYGIGLIYVSSQSSYEAAKDYLSTDPEPVVSYLGNEAKVRFNTLAAISMGLARSPSDIMKFYETTLFFSQNGKDLLEEKISASLKFLEKNGFIKQSPDLRTTQLGKVTSDLYIDPESALRLVDFFDGPADVDHAIYYISLCREIVPFNIKDDYSAMEFLDDIGLIDGDIDAAKTAIVLRDWISEASYKYLYDKYGIAPGDMQARISMADWLSYSLAKLSSIYKPEVRRMLEILNLRIKEGIREDILQLVLIPGVGRVRARRLYDAGLRSIEDVASASPDRIKAIYGFSDTLANAIIRRARTIASKEVR”: the protein production result is listed as “failed”.

In the case of “MKITVFGATGNVGNRVITEALLRGHEITAVLRNNARANEFDSSVKVVIGHADNVDDVVKWSDGQDLIISATRPPQGLESQLVDTAKALLSGLAQTKVRLLLVGGAASLTVPNSNGMLVVDDTDLVPTAWRDIALACLAQHKLCQENESVDWSYISPPAVIVPGERTGIFRTGSDELLVDEQGQSTISLEDFAIALLDEAEVVKHKRKRFTVAYLEHHHHHH”, the protein production result is “failed”.

In the case of “MKITWFGHACFALEMEGKTIVTDPFDESVGYPIPNVTADVVTESHQHFDHNAHHLVKGNFRVIDRPGAYTVNGVKIKGVETFHDPSHGRERGKNIVFVFEGEGIKVCHLGDLGHVLTPAQVEEIGEIDVLLVPVGGTYTIGPKEAKEVADLLNAKVIIPMHYKTKYLKFNLLPVDDFLKLFDSYERVGNILELFEKPKERKVVVMEVQ”, the protein production result is listed as “not failed”.

With “MKIVAITSCPNGIAHTYMAQEKLEQVAKEMGVDIKVETQGGVGAENVLTTQDIEEADGVIIAADKQVDLSRFVGKRLINENVREGIHNPRGLIQRIINQDAPIY”, the protein production entry was “not failed”.

Regarding “MKKAAAYTFCFLLLSGVGIILFMDIHPAFGGIPTTEQKEAYRELDNYVDGNFVNDVPTRRAFVDPSDTTSTTNTSASEVKDRNPVSPIPVYVIDWNKINSENDSLTWFGHSAFLLNVDNKQLLIDPMLGPVVSPVSFVGRNRYEYSEDIMLHLIDEMPPIDAVLITHDHYDHLDYRSIVKLNNKVSHFFVPLGCSAHLIRWGIPEEKITELNWWEETEYQGLTVALTPSRHSSGRNPFNIDTTLWGGWVILGNKTRVYTSGDSGYGPHFKQIGDKYGPFDITLIEGAQYDRNWPDLHMVPEQAIQANLDVGGKTMMLMHWGAFTLANHAWNEPIERALKEAKIREVNIIAPMIGETVLLDSDLQTSPTSWWDF”, the protein production entry was “failed”.

With “MKKAIQFGAGNIGRGFIGGLLVKSGYHVVFADVNEYILNSINKDKKYTIHIRDVECIDEVIDNISAVSSIKEEIIDEIVQAEIITTAVGPLVLTKIASTIAKGIKARKEKGLTSNLNIIACENAIYASSSLKEEVLKYLNKEEVEYLEMYVGFPNCSVDRIVPPGKNENPLDVTVENFYEWNVEKQGFKGEIPTIVGMNLADNLMAYIERKLFTLNTGHAITAYIGYLKGYKTIEESIKDKFICDIVKSAMVESGEGLIKKYNFDSEVHYKYIDKILNRFKNPYLNDDVLRVGREPLRKLSDKDRLIKPLMTAKSYGLSVDNLILGIGAALHYNNSEDTQSVELQELIKSIGVKKAVAKIANISNDEELLNNIEKSYIFMKNL”, the protein production result was “not failed”.

As to “MKKAKSRIAILGTGGTIAGFIDSTIATTGYAAGAIDIDVLIKAVPQIRDLADISWEQIANIDSSNMCDEIWLRLAKKIAKLFAEGIDGVVITHGTDTMEETAYFLNLTIKSDKPVVLVGAMRPSTAISADGPKNLYNAVALVVNKEAKNKGVMVAINDKILSARGVVKTHSLNVDAFSSPDFGDLGYIVDGKVFFYNNVIKAHTKNAPFDVSKLTSLPKVDILYSYSNDGSGVAAKALFEHGTKGIVVAGSGAGSIHKNQKDVLKELLKKGLKVVVSSRVVAGCVAVSDSDEKLGFISAEDLNPQKARVLLMLALTKTSDPKKIQEYFLKY”, the protein production result was “not failed”.

Turning to “MKKASFVYSENQLSYQFHSTHPFNHQRLRLTYDLLKSMDALDDSEIVAPRVATEAELRLIHDQAFIDAVKAAGNGTLSDGVALNYGLGTEDTPIFKNMHEAAALLVGGTLTAVDQVMEGHAEHACHLGGGLHHGFRGKASGFCVYNDSSIAIEYMRRKFGARVLYIDTDAHHGDGVQWAFYEEDDVCTLSIHETGRYLFPGTGNFNEKGQGEGYGYSINIPLDAFTEDDSFLFAYEQAVTNVVKFFKPDVILTQNGADAHFHDPLTHLCASMRTFRYIPQLAHALAHEYCEGRWIAVGGGGYDIWRVVPRAWAMIWLEMTDQLQKANGPLPERWLSKWTTYAQHPLPSHWEDENEELPTIPRRDEITEKNKKIVEKALYHIYTELKTQT”, the protein production entry is listed as “failed”.
